Four molecules from patent US20030078221, “High affinity nucleic acid ligands of complement system proteins” (Gilead Sciences, Inc., published 2003) can be followed below.

Data set [1] deals with T1, Complement C1q (UniProt P02745;P02746;P02747 P02745:23-245,P02746:28-253,P02747:29-245). The data set can be described thus: filter; MgPBS 37C; text states range 0.29-3.9 nM for best ligands. The conditions noted are these: tags: Quidel; chain copies: 6. As to the method:
(§1) Individual cloned DNA was T7 transcribed with α-[³²P]-ATP and the full length [³²P]-2′-NH₂-RNA or 2′-F-RNA was gel-purified (as above). RNA was suspended at approximately 5,000 cpm per 30 μL sample (<10 pM), and aliquots were incubated with various concentrations of C1q, C3 or C5 in MgPBS for 10 minutes at 37° C. Samples were then filtered through nitrocellulose, the filters washed with buffer and dried under an infrared lamp, and counted with addition of scintillation fluid (Ecoscint A, National Diagnostics, Atlanta, Ga.). A background sample of RNA alone was run in parallel. […] Filters were washed and counted.

In data set [2] the target is T2, Complement C5 (Homo sapiens, UniProt P01031;P01031 P01031:19-673,P01031:678-1676). As to the kind of experiment: filter; MgPBS 37C. The conditions noted are these: tags: Quidel. As to the method: as §1
Sequences were grouped according to homology and function.

Data set [3] has as its target T2, Complement C5. The data set can be described thus: inhibition; inhibition of C5a release, zymosan-treated human serum. The conditions noted are these: tags: Quidel. How it is done:
Nucleic Acid Ligand-C5 interaction that inhibits cleavage of C5 would prevent formation of the C5b and MAC assembly. […] For this experiment, dilutions of clone C6 were incubated with whole human serum in GVB⁺⁺ (veronal-buffered saline containing calcium, magnesium and 1% gelatin) plus addition of zymosan for 30 minutes at 37° C. The samples were then quenched with EDTA-buffer and spun, and supernatants were assayed for C5a by radioimrnmunoassay (RIA) (Wagner and Hugli (1984) Anal. Biochem. 136:75).

The target in data set [4] is T1, Complement C1q. As to the kind of experiment: filter; above background; SEQ 20 in listing differs from Table 2. The conditions noted are these: tags: Quidel; chain copies: 6.
For data set [5], the target named is T2, Complement C5. As to the kind of experiment: filter; Kd not given. The conditions noted are these: tags: Quidel.

T1 sequence (P02745 23-245, chain 1 of 3): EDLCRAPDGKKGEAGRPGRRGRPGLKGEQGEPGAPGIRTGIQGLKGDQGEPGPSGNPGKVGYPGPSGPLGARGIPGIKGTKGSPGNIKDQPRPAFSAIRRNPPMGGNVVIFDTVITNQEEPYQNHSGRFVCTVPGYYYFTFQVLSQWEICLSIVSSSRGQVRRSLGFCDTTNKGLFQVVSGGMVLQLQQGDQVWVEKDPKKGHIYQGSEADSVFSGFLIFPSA
T1 sequence (P02746 28-253, chain 2 of 3): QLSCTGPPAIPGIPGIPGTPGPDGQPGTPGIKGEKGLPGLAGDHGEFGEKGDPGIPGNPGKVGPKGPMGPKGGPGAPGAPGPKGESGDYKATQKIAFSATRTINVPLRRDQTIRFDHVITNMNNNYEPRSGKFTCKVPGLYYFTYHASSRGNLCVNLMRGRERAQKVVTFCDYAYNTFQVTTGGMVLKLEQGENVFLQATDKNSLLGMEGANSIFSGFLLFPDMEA
T1 sequence (P02747 29-245, chain 3 of 3): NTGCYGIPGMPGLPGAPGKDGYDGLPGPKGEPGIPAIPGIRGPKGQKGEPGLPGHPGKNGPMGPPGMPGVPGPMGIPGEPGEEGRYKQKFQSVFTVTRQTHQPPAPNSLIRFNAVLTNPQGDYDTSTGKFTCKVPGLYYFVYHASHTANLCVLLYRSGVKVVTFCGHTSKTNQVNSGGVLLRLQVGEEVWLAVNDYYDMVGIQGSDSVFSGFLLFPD

B1: C1q clone 23 (ssRNA)
RNA: GGGAGGACGAUGCGGCACUCACCUUCAUAUUGGCCGCCAUCCCCAGGGUUGAGCCCAGACACAGCAGACGACUCGCCCGA
modifications: 2'-NH2 pyrimidines
As to B1, the Kd with Complement C1q [1] was determined as 23 nM.

B2: C6 (ssRNA)
RNA: GGGAGGACGAUGCGGUCUCAUGCGUCGAGUGUGAGUUUACCUUCGUCAGACGACUCGCCCGA
modifications: 2'-F pyrimidines
B2 returned a Kd with Complement C5 [2] of 30 nM. The Ki in the data set with Complement C5 [3] was roughly 100 nM.

B3: C1q clone 67 (ssRNA)
RNA: GGGAGGACGAUGCGGCAGACGACUCGCCCGAGGGGAUCCCCCGGGCCUGCAGGAAUUCGAUAUCAGACGACUCGCCCGA
modifications: 2'-NH2 pyrimidines
On to B3, for which the binding result in the data set with Complement C1q [4] is given as “binds”.

B4: C6 42mer truncate (ssRNA)
RNA: GACGAUGCGGUCUCAUGCGUCGAGUGUGAGUUUACCUUCGUC
modifications: 2'-F pyrimidines
Turning to B4, the binding result with Complement C5 [5] is given as “binds”.

In general, Kd refers to the concentration at which binding is half-saturated. Low values mean higher affinity, high ones lower affinity. What is called Ki is the equilibrium dissociation constant of an inhibitor or competing ligand from its target. Higher therefore signals weaker binding.
